The target of the experiment is T1, SARS-COV-2 RBD (SARS-COV-2, UniProt P0DTC2 319-539).
T1 construct: also called WT RBD
Description: ELISA, RBD coated. In general terms: In an ELISA, binding on a coated surface is turned into a signal by an enzyme label.

Changes are numbered by the printed parent chain.

As a reminder, the EC50 is the concentration needed to bring the measured effect to its halfway point. A low value points to higher potency in that assay.

B1: C898 (antibody, V domains shown)
VH: QVQLVQSGAEVKKPGSSVKVSCKASGGPFSSYAFTWVRQAPGQGLEWMGGIIATFGTVNYAQKFQGRVTITADEFTSTVNMELSSLRSDDTAVYYCARRDCSTTSCYDEVLYRLVDWGQGTLVTVSS
VL: EIVLTQSPGTLSLSPGERATLSCRASQSVNSDYLAWYKQKPGQAPRLLIYGTSSRATGIPDRFSGSGSGTDFTLTISRLEPDDFAVYYCQQYGNSPRTFGQGTKVEIK
notes: IgG; V domains only
B1 yielded an EC50 of 7.6 ng/mL.

B2: C876 (antibody, V domains shown)
VH: EVQLVESGGGLIQPGGSLRLSCAASEFVISRNYMSWVRQAPKKGLEWVSVLYSGGSTFYADSVKGRFTISRDDSRNMLYLQMNSLRAEDTAVYYCVRDFGEFYFDYWGQGVLVTVSS
VL: EIVMTQSPTTLSVSPGERATLSCRASQSLSSNLAWYQQKPGQAPRLLIFGVSTRATGIPARFSGSGSGTEFTLTISSLQSEDFAVYYCQQYYSGPRTFGQGTKVEIK
notes: IgG; V domains only
For the molecule B2, the EC50 came out at 3.53 ng/mL.

B3: C891 (antibody, V domains shown)
VH: EVQLVESGGGLVKPGGSLRLSCAVSGFTFSNVWMSWVRQAPGKGLEWVGRIKSKTDGGTTDYAAPVKGRFTISRDDSKNTLYLQMNSLKTEDTAVYYCTSQLWLRGPGDYWGQGTLVTVSS
VL: NFMLTQPHSVSESPGKTVTISCTGSSGSIASNYVQWYQQRPGSAPTTVIYEDNQRPSGVPDRFSGSIDSSSNSASLTISGLKTEDEADYYCQSYDSSLNWVFGGGTKLTVL
notes: IgG; V domains only
Regarding B3, the EC50 is 2.14 ng/mL.

B4: C892 (antibody, V domains shown)
VH: EVQLVESGGGLVKPGGSLKVSCTASGFTFTDAWMSWVRQAPGKGLEWVGRIKSRAYGGTTDYGAPVQGRFTISRDDSINTLYLQMNSLTAEDTAVYYCTSQLWLRGPGDYWGQGTLVTVSS
VL: B3 VL with Q35H, S43G, S69I, A87G, S97G, L98V
notes: IgG; V domains only
In the case of B4, the response was half-maximal at 1.83 ng/mL (EC50).

B5: C952 (antibody, V domains shown)
VH: EVQLVQSGAEVKKPGESLTISCKDSGNSFTIYWIGWVRQMPGKGLEWMGMIYPGDSGTRYSPSFEGQVTISADESINTAYLQWRSLKASDTAMYYCVRGIAVDWYFDLWGRGTLVTVSS
VL: QSVLTQPPSVSGAPGQRVTISCTGSSSNIGAGFDVHWYQQLPGTAPKLLIYGNNNRPSGVPDRFSGSKSATSASLAITGLQAEDEADYYCQSSDSSLSGLYVFGTGTNVIV
notes: IgG; V domains only
B5 displayed a half-maximal effective concentration (EC50) of 2.4 ng/mL.

B6: C899 (antibody, V domains shown)
VH: EVQLVESGGGLVKPGGSLRLSCAASGFTFSNAWMSWVRQAPGKGLEWVGRIKSKTDAETTDYAAPVRGRFTISRDNSKNTLYLEMNSLKTEDTAVYYCTTDADYSDSSGYYVTYYFEYWGQGSLVTVSS
VL: QSALTQPRSVSGSPGQSVTISCTGSNSDVGGYNYVSWYQQHPGKAPKLVIYDVSLRPSGVPDRFSGSKSGITASLTISGLQPEDEAHYYCCSFAGTYTPWVFGGGTRLTVL
notes: IgG; V domains only
Molecule B6 returned a concentration for a half-maximal effect (EC50) of 2.23 ng/mL.

B7: C895 (antibody, V domains shown)
VH: QVQLVQSGAEVKKPGSSVKVSCKASGGTFTSYAFSWVRQAPGQGLEWMGGIIPIFGTTNYAQKFQGRVTITADESTSTAYMELSSLRSEDTAVYYCARPEGCGSRTSCTPGAYYYGMDVWGQGTTVTVSS
VL: EIVLTQSPATLSLSPGERATLSCRASQSVGSYLAWYQQKPGQAPRLLIYDASNRATGIPARFSGSGSGTDFTLTISSLEPEDFAFYFCQQRNSWPPEYSFGQGTKLEIK
notes: IgG; V domains only
The molecule B7 returned an EC50 of 2.21 ng/mL.

B8: C896 (antibody, V domains shown)
VH: QVQLVESGGGVVQPGRSLKLSCAASGFTFKTYGMHWVRQAPGKGLEWVAVISYDGTNDYYADSVKGRFTVSRDNSKNTLYLQMNSPRTEDTAVYYCAKAGGPYYYDTSGSFWYFDYWGQGTLVTVSS
VL: DIQMTQSPSSLSASVGDRVTITCRASQTISSYLNWYQQKSGKAPELLVYDASNLESGVPSRFSGSGSGTDFTLTISSLQPEDFATYYCQQSYSFGPGTKVDIK
notes: IgG; V domains only
For the molecule B8, the EC50 came to 4.3 ng/mL.

B9: C893 (antibody, V domains shown)
VH: EVQLVQSGAEVKKPGESLKISCKGSGYYFTRQWIGWVRQMPGKGLEWMGIIYPGDSDTRYSPSFQGQVTISADKSISTAYLQWSSLKASDTAMYYCARGGWDPAEYSSSGGGGLDAFDIWGQGTMVTVSS
VL: EIVLTQSPATLSLSPGERATLSCRASQSVSSYLAWYQQRPGRAPRLLIYDASNRATGIPGRFSGSGSGTDFSLTISSLEPEDFAVYYCQQRSSWPLTFGQGTRLEIK
notes: IgG; V domains only
B9 gave an EC50 of 3.73 ng/mL.

B10: C878 (antibody, V domains shown)
VH: EVQLVESGGGLVQPGGSLRLSCSVSGFTFSNFAMHWVRQAPGKGLEFVSGVSSDGDITDYADSVKGRFTISRDNSKNTLYLQMSSLRPEDTAVYYCVKDKEHSTMVTIFDFWGQGTLVTVSS
VL: DIQMTQSPSSLSASVGDRVTITCRASQSISSFLNWYQQKPGKAPKLLIYAASSLQSGVPSRFSGRGSGADFTLTITSLQPEDFATYFCQQSYSSHLTFGPGTKVDIK
notes: IgG; V domains only
The molecule B10 showed an EC50 of 2.88 ng/mL.

B11: C897 (antibody, V domains shown)
VH: QVQLVESGGGVVQPGRSLRLSCAASGFIFSHYGMHWVRQAPGKGLEWVAVILYDGSDQYYADSVKGRFTISRDNSKNTLFLEMNSLRLEDTAVYYCAKGGGQYCSHGNCYLNYFDYWGQGALVTVSS
VL: DIQMTQSPSSLSASVGDRVTITCQASQDIRDNLNWYQQKPGKAPQLLIYDASNLQPGVPSRFSGSGSGTHFTFTISRLQPEDIATYFCQQYANLPTTFGPGTKVDIK
notes: IgG; V domains only
For the molecule B11, a half-maximal effect (EC50) was put at 1.88 ng/mL.

B12: C900 (antibody, V domains shown)
VH: QVQLQESGPGLVKPSGTLSLTCTVSGGSINSRNWWSWVRQPPGKGLEWIGEIFHSGSTNYNPSLESRVAISIDKSHNHFSLKLTSVTAADTAVYYCARANGILDFWGQGTLVTVSS
VL: DIQMTQSPSSLSASVGDRVTITCRASQGISNSLAWYQLKPGKAPKLLLYAASTLESGVPSRFSGSGSGTNFTLTISSLQPEDFASYCCQHYYSSPRTFGQGTKVEI
notes: IgG; V domains only
Regarding B12, a half-maximal effect (EC50) was put at 2.54 ng/mL.

B13: C986 (antibody, V domains shown)
VH: EVQLVQSGAEVKKPGETLKISCKGSGDSFSNYWIGWVRQSPGKGLEWMAIVYPGDSDARYSPSFQGQVTISADKSVTTAYLKWSSLKASDTAIYYCVRGLPVDWYFDLWGRGTLVTVSS
VL: QSVLTQPPSVSGAPEQRVTISCTGSSSNIGAGHDVHWYQQLPGTAPKLLIYNNNNRPSGVPDRFSGSKSGASASLAISGLQAEDEAEYYCQSYDKSLSVLYVLGTGTKVTV
notes: IgG; V domains only
For the molecule B13, the midpoint of the response, the EC50, lay at 3.36 ng/mL.

B14: C902 (antibody, V domains shown)
VH: EVQLVQSGAEVKKPGESLRISCKGSGYSFHTYWIHWVRQMPGKGLEWMGKIDPSDSYTNYSPSFQGHVTFSADRSISTAYLQWSSLKASDTATYYCARLSWSPPTRTTDEKNWFDPWGQGTLVTVSS
VL: DIQLTQSPSFLAASAGDRVTITCRASQGISSYLAWYQQKPGKAPKVLIYAASTLQSGVPSRFSGSGSGTEFTLTISSLQPEDCATYYCQQFNSDPLTFGGGTKVEIK
notes: IgG; V domains only
B14 yielded an EC50 of 3.39 ng/mL.

B15: C901 (antibody, V domains shown)
VH: QVQLVESGGGVVQPGRSLRIACGASGFTFSTYDMHWVRQAPVKGLEWVAVISRDGSGKFYADSVKGRFTISRDNSKKTLYLQMDSLRPEDTAMYYCARDFESRTWDPPKYYYALDVWGQGTTVTVSS
VL: DIQMTQSPSSLSASVGDRVTITCRASQSISTYLNWYQQKPGKAPSLLIYAASSLYSGVPSRFSGSGSGTDFSLTISSLQPEDFATYYCQQTYTTPTWTFGQGTKVEIK
notes: IgG; V domains only
B15 gave an EC50 of 2.01 ng/mL.

B16: C890 (antibody, V domains shown)
VH: QVQLVQSGAEVKKPGSSVKASCKASGGTFSTYTISWVRQAPGHGLEWMGRIIPIFGTTKYAQKFQGRVTITADESTTTAYLELSSLRSEDTAVYYCTINTQWDLVPRWGQGTLVTVSS
VL: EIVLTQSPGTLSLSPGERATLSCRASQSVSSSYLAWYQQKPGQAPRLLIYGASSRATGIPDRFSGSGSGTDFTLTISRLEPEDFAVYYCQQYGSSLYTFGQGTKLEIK
notes: IgG; V domains only
Regarding B16, the EC50 was 9.68 ng/mL.

(Values after patent publication US20240218057A1 (ROCKEFELLER UNIVERSITY, published 2024).)
